Source: patent US8877192B2, “Rage fusion proteins and methods of use” (TransTech Pharma, LLC, priority 2004, dated 2014)

Assay: Pharmacokinetic profile of TTP-4000 after IV injection, plasma ELISA
Format: in vivo, monkeys
Details: single IV bolus 5 mg/kg, 2 animals, FIG. 11
Method: Following collection, the tubes were placed on wet ice (maximum 30 minutes) until centrifugation under refrigeration (at 2 to 8° C.) at 1500×g for 15 minutes. Each harvested plasma sample was then stored frozen (−70° C.±10° C.) until assayed for RAGE polypeptide using an ELISA at various time-points following the injection, as described in Example 6.
Initially, 50 uL of the RAGE specific monoclonal antibody 1HB1011 at a concentration of 10 ug/mL in 1×PBS pH 7.3 is coated on plates via overnight incubation. When ready for use, plates are washed three times with 300 uL of 1× Imidazole-Tween wash buffer and blocked with 1% BSA. […] The samples are allowed to incubate at room temperature for one hour. After incubation, the plates are plates are washed three times. A Goat Anti-human IgG1 1 (Sigma A3312) AP conjugate in 1×PBS with 1% BSA is added and allowed to incubate at room temperature for 1 hour. The plates are washed three times. Color was elucidated with paranitrophenylphosphate.

B1: TTP-4000: four domain RAGE fusion protein (SEQ ID NO: 32): human RAGE amino acids 1-251 linked to CH2 and CH3 domains of human IgG (protein)
chain: MAAGTAVGAWALVLSLWGAVVGAQNITARIGEPLVLKCKGAPKKPPQRLEWKLNTGRTEAWKVLSPQGGGPWDSVARVLPNGSLFLPAVGIQDEGIFRCQAMNRNGKETKSNYRVRVYQIPGKPEIVDSASELTAGVPNKVGTCVSEGSYPAGTLSWHLDGKPLVPNEKGVSVKEQTRRHPETGLFTLQSELMVTPARGGDPRPTFSCSFSPGLPRHRALRTAPIQPRVWEPVPLEEVQLVVEPEGGAVAPPSVFLFPPKPKDTLMISRTPEVTCVVVDVSHEDPEVKFNWYVDGVEVHNAKTKPREEQYNSTYRVVSVLTVLHQDWLNGKEYKCKVSNKALPAPIEKTISKAKGQPREPQVYTLPPSRDELTKNQVSLTCLVKGFYPSDIAVEWESNGQPENNYKTTPPVLDSDGSFFLYSKLTVDKSRWQQGNVFSCSVMHEALHNHYTQKSLSLSPGK
terminal half-life: greater than 300 hours
